The results in this text go back to patent publication EP4375293A1 (Max-Planck-Gesellschaft zur Förderung der Wissenschaften …, dated 2024).

For test [1], the target named is SARS-CoV-2 Omicron BA.1 variant spike protein (SARS-CoV-2 (Omicron BA.1 variant)). Kind of test: cell-based or functional assay.
The target of test [2] is T1, SARS-CoV-2 Delta RBD (Delta_RBD-Avi-His) (SARS-CoV-2 (Delta variant)). Kind of test: BLI, biotinylated RBD, mass transport model fit. (In general: In BLI a coated tip is dipped into the sample, and binding shifts an interference pattern.)
Test [3] deals with SARS-CoV-2 Omicron BA.1 RBD (Omicron_BA.1_RBD-AviHis) (SARS-CoV-2 (Omicron BA.1 variant)). Kind of test: BLI, biotinylated RBD, mass transport model fit.
The target in test [4] is SARS-CoV-2 Omicron BA.2.75 RBD (Omicron_BA.2.75_RBD-AviHis) (SARS-CoV-2 (Omicron BA.2.75 variant)). Briefly: BLI, biotinylated RBD, mass transport model fit.
Test [5] addresses SARS-CoV-2 Omicron BA.5 RBD (Omicron_BA.5_RBD-AviHis) (SARS-CoV-2 (Omicron BA.5 variant)). Briefly: BLI, biotinylated RBD, mass transport model fit.
Test [6] has as its target SARS-CoV-2 Delta variant spike protein (SARS-CoV-2 (Delta variant)). Briefly: cell-based or functional assay.
Test [7] deals with T1, SARS-CoV-2 Delta RBD (Delta_RBD-Avi-His). Briefly: BLI, biotinylated RBD.

Positions count from the first letter of the chain named.

B1: Ma28D01 (VHH)
VHH: QVQLVESGGGLVQPGGSLRLSCVVSELGLDYYQIGWFRQAPGKEREGVSCFRSSDEIRYYADSVKGRFTTFRDNAGTTVYLQMNSLKPEDTGVYYCAVAPQTYYHGTWYGECAAAGMDSWGKGTQVTVSS
notes: Monomeric VHH
One may read the Kd as a measure of binding affinity in units of concentration. Low values mean higher affinity, high ones lower affinity. For B1, the “Lowest virus neutralizing concentration (pM; IC99)” value in test [1] is 1700 pM. Further, the Kd in test [2] was 0.015 nM; in test [3], 0.2 nM; in test [4] it was 0.3 nM; in test [5] it was 0.03 nM.

B2: Ma28F04 (VHH)
VHH: B1 VHH with E26D, S63P, Q125L
notes: Monomeric VHH
Regarding B2, the “Lowest virus neutralizing concentration (pM; IC99)” value in test [6] and in test [1] was 500 pM throughout. The equilibrium dissociation constant (Kd) was 0.03 nM in test [2], 0.15 nM in test [3], 0.2 nM in test [4] and 0.03 nM in test [5].

B3: Ma16B06 (VHH)
VHH: QVQLVESGGGLVRTGGSLRLSCAASGSILQIWAMKWYRQAPGLQREWIATIPNSGEPFYASSVEGRFTGSRENEETVYLYLNNLEPEDTAVYYCEVNEGVPVREYWGQGTQVTVSS
notes: Monomeric VHH; also called VHH Ma16B06
For B3, in test [7], the binding result was “no binding”. In addition, the “Lowest virus neutralizing concentration (pM; IC99)” value is above 5000 pM in test [6] and 50 pM in test [1]. Besides, the Kd in test [3] was found to be 0.04 nM; in test [4] it was 0.06 nM; in test [5] it was 20 nM.

B4: Ma28H11 (VHH)
VHH: QVQLVESGGGLVQPGGSLRLSCATSGLTLDHYAIGWFLQAPGKEREGVACVSDDERSLYAPSVMGRFSISRDNAKKTFYLEMNSLKPEDTGVYYCASGPVVPGTLCRIPTVLGYDDWGQGTQVTVSS
notes: Monomeric VHH; also called M28H11
For B4, the “Lowest virus neutralizing concentration (pM; IC99)” value in test [6] is 50 pM; in test [1], above 5000 pM. In addition, the Kd in test [2] is 0.03 nM; in test [3] it was 30 nM; in test [4], 0.6 nM; in test [5] it was 0.3 nM.
